From US20110217237A1 (AbbVie / Abbott, published 2011) come the findings set out here.

In assay [1] the target is T1, mouse DLL4 on cells (mouse, UniProt Q9JI71 27-686).
T1 construct: whole, on cells; also called mouse DLL4-293G; mu DLL4 cells
Kind of assay: FACS, direct binding to DLL4 cells. How it is done: (§1) Stable cell lines overexpressing cell-surface DLL4 were harvested from tissue culture flasks, washed four times and resuspended in phosphate buffered saline (PBS) containing 1% bovine serum albumin and 1 mM CaCl₂ (FACS buffer). 1.5×10⁵ cells were incubated with antibodies at various concentrations in FACS buffer for 60 minutes on ice. […] Following an incubation on ice (4° C., 60 minutes), cells were washed three times and resuspended in FACS buffer. Fluorescence was measured using a Becton Dickinson FACSCalibur-HTS (Becton Dickinson, San Jose, Calif., US). Data were analyzed using Graphpad Prism software and EC₅₀ values were reported as the concentration of antibody to achieve 50% of maximal DLL4 antibodies binding to DLL4 expressing cells.
(§2) The hu1A11.1 affinity matured clones (Table 22) were expressed, purified, and further characterized in vitro. Their activities of binding to cell-bound DLL4 and inhibiting cell-bound DLL4-induced Notch activation were further examined using methods described in Examples 1.3 and 1.6, and are summarized in Table 26 (below).
(A flow cytometer gives signals particle by particle.)

Assay [2] has as its target T2, human DLL4, full length, on cells (human, UniProt Q9NR61 27-685).
T2 construct: also called huDLL4 cells; human DLL4-293G
Kind of assay: FACS, direct binding to DLL4 cells. How it is done: as §1, §2

In assay [3] the target is T1, mouse DLL4 on cells. Kind of assay: cell-based or functional assay.
The target in assay [4] is T2, human DLL4, full length, on cells. Kind of assay: cell-based or functional assay.
For assay [5], the target named is T3, mouse DLL4 extracellular domain (mouse, UniProt Q9JI71 27-532).
T3 construct: extracellular domain; also called muDLL4 ECD; murine DLL4
Put plainly: SPR (Biacore). As to the method:
(§3) The BIACORE® surface plasmon resonance assay (Biacore, Inc., Piscataway, N.J., US) determines the affinity of antibodies with kinetic measurements of on-rate and off-rate constants. Binding of DLL4 antibodies to a purified recombinant DLL4 extracellular domain (ECD) was determined by surface plasmon resonance-based measurements with a Biacore® instrument (either a Biacore 2000, Biacore 3000, or Biacore T100; GE Healthcare, Piscataway, N.J., US) using running buffer HBS-EPB (10 mM HEPES [pH 7.4], 150 mM NaCl, 3 mM EDTA, 0.1 mg/ml BSA and 0.005% surfactant P20) at 25° C. For example, approximately 9000 RU of goat anti-human Fc specific polyclonal antibody (Thermo Fisher Scientific Inc., Rockford, Ill., US) diluted in 10 mM sodium acetate (pH 4.5) is directly immobilized across a CMS research grade biosensor chip using a standard amine coupling kit according to manufacturer's instructions and procedures at 25 μg/ml. Unreacted moieties on the biosensor surface were blocked with ethanolamine. For kinetic analysis, rate equations derived from the 1:1 Langmuir binding model were fitted simultaneously to multiple antigen injections (using global fit analysis) with the use of Scrubber 2 (BioLogic Software), Biacore Biaevaluation 4.0.1 software or Biacore T100 Evaluation software. Purified antibodies were diluted in running buffer for capture across goat anti-human Fc reaction surfaces. Antibodies to be captured as a ligand (1 μg/ml) were injected over reaction matrices at a flow rate of 10 μl/min. During the assay, all measurements were referenced against the capture surface alone (i.e., with no captured anti-DLL4 antibody). […] The equilibrium dissociation constant KD (M) of the reaction between antibodies and the target antigen was then calculated from the kinetic rate constants by the following formula: KD=Koff/Kₒₙ. Binding was recorded as a function of time and kinetic rate constants were calculated.
For orientation: SPR reads the build-up and loss of mass on a sensor chip optically.

Assay [6] deals with T4, rat DLL4 extracellular domain (rat, UniProt D3ZHH1 28-530).
T4 construct: extracellular domain; also called ratDLL4 ECD
Kind of assay: SPR (Biacore). As to the method:
as §3

In assay [7] the target is T5, human DLL4 extracellular domain (human, UniProt Q9NR61 27-529).
T5 construct: purified recombinant ECD; biotin-labelled or 6xHis-tagged depending on the assay; also called huDLL4 ECD; hu DLL4 ECD
Kind of assay: SPR (Biacore). How it is done:
as §3

For assay [8], the target named is T6, cynomolgus monkey DLL4 extracellular domain (cynomolgus monkey).
T6 construct: extracellular domain; also called cynoDLL4 ECD; Cyno DLL4
Kind of assay: SPR (Biacore). How it is done:
as §3

T4 sequence (D3ZHH1 28-530): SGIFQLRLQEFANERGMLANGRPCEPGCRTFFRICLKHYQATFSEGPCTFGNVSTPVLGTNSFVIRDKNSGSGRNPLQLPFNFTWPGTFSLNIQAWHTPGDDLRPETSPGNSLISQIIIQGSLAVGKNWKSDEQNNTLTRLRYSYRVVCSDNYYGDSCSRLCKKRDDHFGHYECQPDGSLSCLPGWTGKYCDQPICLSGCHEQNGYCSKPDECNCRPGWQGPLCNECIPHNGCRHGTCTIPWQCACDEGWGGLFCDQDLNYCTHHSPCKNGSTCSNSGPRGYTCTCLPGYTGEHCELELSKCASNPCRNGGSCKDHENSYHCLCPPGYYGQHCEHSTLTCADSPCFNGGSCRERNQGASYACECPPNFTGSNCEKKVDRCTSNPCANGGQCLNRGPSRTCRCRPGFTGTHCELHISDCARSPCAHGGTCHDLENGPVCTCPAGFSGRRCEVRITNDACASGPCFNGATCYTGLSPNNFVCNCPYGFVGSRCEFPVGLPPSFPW
T1 sequence (Q9JI71 27-686): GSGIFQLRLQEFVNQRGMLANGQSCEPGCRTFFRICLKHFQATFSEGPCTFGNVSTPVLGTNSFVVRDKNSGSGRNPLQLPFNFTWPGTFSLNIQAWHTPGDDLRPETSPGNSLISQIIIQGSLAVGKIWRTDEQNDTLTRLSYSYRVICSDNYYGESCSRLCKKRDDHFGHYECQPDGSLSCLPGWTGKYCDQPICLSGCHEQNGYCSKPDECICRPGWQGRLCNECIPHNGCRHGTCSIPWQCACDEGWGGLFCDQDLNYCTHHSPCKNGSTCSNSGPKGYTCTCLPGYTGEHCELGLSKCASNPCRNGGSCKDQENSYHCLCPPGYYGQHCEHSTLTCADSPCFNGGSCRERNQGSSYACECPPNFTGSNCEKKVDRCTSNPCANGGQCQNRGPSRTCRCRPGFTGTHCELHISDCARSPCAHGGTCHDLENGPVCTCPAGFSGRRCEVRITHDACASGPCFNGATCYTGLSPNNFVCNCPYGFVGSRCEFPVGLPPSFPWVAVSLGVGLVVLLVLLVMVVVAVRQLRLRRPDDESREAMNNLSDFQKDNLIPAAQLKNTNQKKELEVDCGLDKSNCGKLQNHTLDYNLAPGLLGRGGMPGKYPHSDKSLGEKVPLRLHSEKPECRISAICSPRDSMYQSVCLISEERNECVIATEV
T2 sequence (Q9NR61 27-685 limits assumed): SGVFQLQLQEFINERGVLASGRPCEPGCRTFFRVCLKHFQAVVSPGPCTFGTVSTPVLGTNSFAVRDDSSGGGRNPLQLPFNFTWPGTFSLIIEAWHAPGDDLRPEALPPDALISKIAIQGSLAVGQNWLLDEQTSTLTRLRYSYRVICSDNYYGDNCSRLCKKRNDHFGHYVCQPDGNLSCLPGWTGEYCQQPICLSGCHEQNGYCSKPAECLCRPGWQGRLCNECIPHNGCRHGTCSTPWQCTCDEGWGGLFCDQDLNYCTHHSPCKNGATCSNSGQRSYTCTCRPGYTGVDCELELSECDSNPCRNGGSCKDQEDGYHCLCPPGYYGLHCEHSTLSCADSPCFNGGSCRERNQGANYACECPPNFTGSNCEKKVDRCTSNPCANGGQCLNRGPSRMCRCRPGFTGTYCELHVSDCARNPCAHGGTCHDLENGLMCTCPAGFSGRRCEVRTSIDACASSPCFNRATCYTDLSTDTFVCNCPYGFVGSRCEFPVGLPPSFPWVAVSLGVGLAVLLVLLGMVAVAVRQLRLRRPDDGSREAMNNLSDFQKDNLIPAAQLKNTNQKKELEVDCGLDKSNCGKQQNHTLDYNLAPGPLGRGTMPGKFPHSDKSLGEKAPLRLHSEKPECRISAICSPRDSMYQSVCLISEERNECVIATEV
T3 sequence (Q9JI71 27-532): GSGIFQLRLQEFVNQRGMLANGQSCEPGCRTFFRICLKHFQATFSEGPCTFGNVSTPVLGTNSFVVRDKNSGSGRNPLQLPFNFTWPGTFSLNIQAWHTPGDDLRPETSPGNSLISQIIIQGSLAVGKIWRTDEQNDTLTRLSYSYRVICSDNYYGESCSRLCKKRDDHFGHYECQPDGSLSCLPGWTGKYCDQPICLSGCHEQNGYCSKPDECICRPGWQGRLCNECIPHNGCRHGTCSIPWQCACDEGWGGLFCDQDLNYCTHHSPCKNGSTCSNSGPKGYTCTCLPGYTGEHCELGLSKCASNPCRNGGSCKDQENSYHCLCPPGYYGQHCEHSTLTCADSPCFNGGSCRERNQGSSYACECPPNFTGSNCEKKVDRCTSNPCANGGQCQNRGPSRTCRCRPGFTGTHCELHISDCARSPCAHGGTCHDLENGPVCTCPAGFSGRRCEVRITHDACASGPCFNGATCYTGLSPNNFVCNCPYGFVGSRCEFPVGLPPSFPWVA
T5 sequence (Q9NR61 27-529 limits assumed): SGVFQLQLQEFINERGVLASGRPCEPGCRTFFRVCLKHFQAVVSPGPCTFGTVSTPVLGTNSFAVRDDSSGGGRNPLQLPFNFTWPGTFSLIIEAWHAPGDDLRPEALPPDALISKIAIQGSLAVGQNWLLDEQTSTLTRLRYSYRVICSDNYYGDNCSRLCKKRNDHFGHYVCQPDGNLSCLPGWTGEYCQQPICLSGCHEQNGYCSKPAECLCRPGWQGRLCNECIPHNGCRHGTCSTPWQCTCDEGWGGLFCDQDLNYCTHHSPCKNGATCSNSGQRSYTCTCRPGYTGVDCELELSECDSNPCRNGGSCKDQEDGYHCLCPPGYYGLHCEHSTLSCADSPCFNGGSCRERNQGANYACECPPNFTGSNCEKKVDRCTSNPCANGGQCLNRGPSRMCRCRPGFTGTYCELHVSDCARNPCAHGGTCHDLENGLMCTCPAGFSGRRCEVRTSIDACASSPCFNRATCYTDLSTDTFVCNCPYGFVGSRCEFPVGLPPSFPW

B1: h1A11.A6 (antibody, V domains shown)
VH: EVQLVESGGGLVQPGGSLRLSCAASGFTFRHFPMAWVRQAPGKGLEWVATISSSDAWPSYRDSVKGRFTISRDNAKNSLYLQMNSLRAEDTAVYYCSRGYYNSPFAYWGQGTLVTVSS
VL: DIQMTQSPSSLSASVGDRVTITCRASEDIYSNLAWYQQKPGKAPKLLIYDTNNLADGVPSRFSGSGSGTDFTLTISSLQPEDFATYYCQQYNNYPPTFGQGTKLEIK
notes: also called h1A11.A6 VH / h1A11VL.1
B1: the EC50 (in general, the concentration that produces a half-maximal response) with mouse DLL4 on cells [1] was 0.636 nM; in assay [2], 2.23 nM. For the same molecule, the “Inhibition of Notch Activation via DLL4 cells, Notch reporter assay” value (“Inhibition” for short) amounted to 1.17 nM with mouse DLL4 on cells [3] and 0.746 nM in assay [4]. Besides, the equilibrium dissociation constant (Kd) (in general, a measure of binding affinity in units of concentration) in assay [5] worked out at 0.16 nM; in assay [6], 6 nM; in assay [7] it was 0.036 nM; in assay [8], 0.12 nM. The koff (in general, the rate constant with which the complex falls apart) in assay [5] is 3.12e-05 s⁻¹; in assay [6] it was 0.000772 s⁻¹; in assay [7] it was 6.62e-06 s⁻¹; in assay [8] it was 2.1e-05 s⁻¹. For the same molecule, the kon (commonly the second-order rate constant of association) in assay [5] was 198000 M⁻¹ s⁻¹; in assay [6] it was 129000 M⁻¹ s⁻¹; in assay [7], 182000 M⁻¹ s⁻¹; in assay [8], 171000 M⁻¹ s⁻¹.

B2: h1A11.G3 (antibody, V domains shown)
VH: EVQLVESGGGLVQPGGSLRLSCAASGFTFRYFPMSWVRQAPGKGLEWVASISGSDGWASYRDSVKGRFTISRDNAKNSLYLQMNSLRAEDTAVYYCARGYYNSPFAYWGQGTLVTVSS
VL: DIQMTQSPSSLSASVGDRVTITCRASQEIYRNLAWYQQKPGKSPKLLIFDTSVLADGVPSRFSGSGSGTDSTLTISSLQPEDFATYYCQQYTYYPPTFGQGTKLEIK
notes: also called h1A11.G3 VH / h1A11.E12 VL
For the molecule B2, the EC50 with mouse DLL4 on cells [1] amounted to 1.4 nM; in assay [2], 3.59 nM. For the same molecule, the “Inhibition” value in the assay with mouse DLL4 on cells [3] turned out to be 2.35 nM; in assay [4], 1.84 nM. The Kd in assay [5] amounted to 0.35 nM; in assay [6], 8.6 nM; in assay [7], 0.087 nM; in assay [8] it was 0.17 nM. Besides, the koff in assay [5] is 4.04e-05 s⁻¹; in assay [6], 0.00101 s⁻¹; in assay [7] it was 9.39e-06 s⁻¹; in assay [8], 1.73e-05 s⁻¹. Moreover, the kon in assay [5] is 117000 M⁻¹ s⁻¹; in assay [6], 118000 M⁻¹ s⁻¹; in assay [7], 109000 M⁻¹ s⁻¹; in assay [8] it was 99000 M⁻¹ s⁻¹.

B3: h1A11.C6 (antibody, V domains shown)
VH: EVQLVESGGGLVQPGGSLRLSCAASGFTFRNFPMAWVRQAPGKGLEWVATISSSDGWPTYRDSVKGRFTISRDNAKSSLYLQMNSLRAEDTAVYYCSRGYYNSPFAYWGQGTLVTVSS
VL: DIQMTQSPSSLSASVGDRVTITCRASEDIYSNLAWYQQKPGKAPKLLIYDTNNLADGVPSRFSGSGSGTDFTLTISSLQPEDFATYYCQQYNNYPPTFGQGTKLEIK
notes: also called h1A11.C6 VH / h1A11VL.1
B3: the EC50 with mouse DLL4 on cells [1] was 0.517 nM; in assay [2], 2.45 nM. Also, the “Inhibition” value is 1.19 nM with mouse DLL4 on cells [3] and 0.894 nM in assay [4]. Further, the Kd in assay [5] came to 0.12 nM; in assay [6], 18 nM; in assay [7], 0.04 nM; in assay [8], 0.18 nM. Moreover, the off-rate (koff) is 2.34e-05 s⁻¹ in assay [5], 0.00305 s⁻¹ in assay [6], 7.18e-06 s⁻¹ in assay [7] and 3.12e-05 s⁻¹ in assay [8]. The kon in assay [5] was found to be 203000 M⁻¹ s⁻¹; in assay [6], 169000 M⁻¹ s⁻¹; in assay [7], 178000 M⁻¹ s⁻¹; in assay [8], 171000 M⁻¹ s⁻¹.

B4: h1A11.F5 (antibody, V domains shown)
VH: EVQLVESGGGLVQPGGSLRLSCAASGFTFRHFPMAWVRQAPGKGLEWVATISSSDAWPSYRDSVKGRFTISRDNAKNSLYLQMNSLRAEDTAVYYCARGYYNSPFAYWGQGTLVTVSS
VL: DIQMTQSPSSLSASVGDRVTITCRASQEIYRNLAWYQQKPGKSPKLLIFDTSVLADGVPSRFSGSGSGTDSTLTISSLQPEDFATYYCQQYTYYPPTFGQGTKLEIK
notes: also called h1A11.F5 VH / h1A11.E12 VL
For B4, the EC50 with mouse DLL4 on cells [1] is 0.46 nM; in assay [2] it was 1.17 nM. The “Inhibition” value with mouse DLL4 on cells [3] was 0.649 nM; in assay [4], 0.484 nM. The dissociation constant Kd in assay [5] was found to be 0.28 nM; in assay [6], 5.8 nM; in assay [7], 0.075 nM; in assay [8] it was 0.17 nM. In addition, the koff in assay [5] was 3.97e-05 s⁻¹; in assay [6], 0.000679 s⁻¹; in assay [7] it was 9.82e-06 s⁻¹; in assay [8] it was 2e-05 s⁻¹. Moreover, the kon in assay [5] was determined as 143000 M⁻¹ s⁻¹; in assay [6] it was 116000 M⁻¹ s⁻¹; in assay [7], 131000 M⁻¹ s⁻¹; in assay [8] it was 118000 M⁻¹ s⁻¹.

B5: h1A11.B4 (antibody, V domains shown)
VH: EVQLVESGGGLVQPGGSLRLSCAASGFTFSNFPMAWVRQAPGKGLEWVATISSSDGTTYYRDSVKGRFTISRDNAKNSLYLQMNSLRAEDTAVYYCARGYYNSPFAYWGQGTLVTVSS
VL: DIQMTQSPSSLSASVGDRVTITCRASQDIYYNLAWYQQKPGKAPKLLIFDTNILADGVPSRFSGSGSGTDFTLTISSLQPEDFATYFCQQYDYVPPTFGQGTKLEIK
notes: also called h1A11VH.1 / h1A11.B4 VL
On to B5, for which the EC50 with mouse DLL4 on cells [1] stood at 0.665 nM; in assay [2] it was 2.15 nM. Moreover, the “Inhibition” value was found to be 1.08 nM in the assay with mouse DLL4 on cells [3] and 3.28 nM in assay [4]. Besides, the Kd in assay [5] amounted to 5.2 nM; in assay [7], 5.2 nM; in assay [8], 6.9 nM. The koff was 0.0025 s⁻¹ in assay [5], 0.000823 s⁻¹ in assay [7] and 0.00099 s⁻¹ in assay [8]. The kon is 479000 M⁻¹ s⁻¹ in assay [5], 157000 M⁻¹ s⁻¹ in assay [7] and 143000 M⁻¹ s⁻¹ in assay [8]. Also, the binding result in assay [6] is “no binding”.

B6: h1A11.A2 (antibody, V domains shown)
VH: EVQLVESGGGLVQPGGSLRLSCAASGFTFSNFPMAWVRQAPGKGLEWVATISSSDGTTYYRDSVKGRFTISRDNAKNSLYLQMNSLRAEDTAVYYCARGYYNSPFAYWGQGTLVTVSS
VL: DIQMTQSPSSLSASVGDRVTITCRASQDIYINLAWYQQKPGKSPKLLIFDTNDLADGVPSRFSGSGSGTDFTLTISSLQPEDFATYYCQQYDYVPPTFGQGTKLEIK
notes: also called h1A11VH.1 / h1A11.A2 VL
For B6, the EC50 stood at 0.634 nM with mouse DLL4 on cells [1] and 2.38 nM in assay [2]. In addition, the entries for the “Inhibition” value (with mouse DLL4 on cells [3]; in assay [4]) were 0.854 nM and 3.68 nM, respectively. Moreover, the Kd in assay [5] was 5 nM; in assay [7], 3 nM; in assay [8], 3.9 nM. Besides, the koff in assay [5] turned out to be 0.000904 s⁻¹; in assay [7], 0.000421 s⁻¹; in assay [8] it was 0.000527 s⁻¹. Further, the kon stood at 181000 M⁻¹ s⁻¹ in assay [5], 142000 M⁻¹ s⁻¹ in assay [7] and 134000 M⁻¹ s⁻¹ in assay [8]. In assay [6], the binding result is “no binding”.
